Reference: US10100341B2, “Tailored oils produced from recombinant oleaginous microorganisms” (Corbion Biotech, Inc., priority 2011, dated 2018)

system: Prototheca moriformis (UTEX 1435); test: cDNA abundance by real-time RT-PCR under nitrogen depletion; assay type: cell-based; settings: after 24 hours of culture in low nitrogen medium
Protocol: A cDNA library was generated from Prototheca moriformis (UTEX 1435) using standard techniques. The Prototheca moriformis cells were grown for 48 hours under nitrogen replete conditions. […] After about 24 hours in culture, the nitrogen supply in the media was completely depleted. The collected samples were immediately frozen using dry ice and isopropanol. Total RNA was subsequently isolated from the frozen cell pellet samples and a portion from each sample was held in reserve for RT-PCR studies. The rest of the total RNA harvested from the samples was subjected to polyA selection. Equimolar amounts of polyA selected RNA from each condition was then pooled and used to generate a cDNA library in vector pcDNA 3.0 (Invitrogen). Roughly 1200 clones were randomly picked from the resulting pooled cDNA library and subjected to sequencing on both strands. Approximately 68 different cDNAs were selected from among these 1200 sequences and used to design cDNA-specific primers for use in real-time RT-PCR studies. RNA isolated from the cell pellet samples that were held in reserve was used as substrate in the real time RT-PCR studies using the cDNA-specific primer sets generated above. This reserved RNA was converted into cDNA and used as substrate for RT-PCR for each of the 68 gene specific primer sets. […] As discussed in the specification, nitrogen depletion/limitation is a known inducer of lipogenesis in oleaginous microorganisms. Fold increase refers to the fold increase in cDNA abundance after 24 hours of culture in low nitrogen medium.

| Molecule | Fold increased (cDNA abundance) |
| --- | --- |
| Aat01-Amino acid transporter 01 promoter/5′UTR: putative nitrogen-regulated promoter/5′UTR, SEQ ID NO: 62 (nucleic acid, listed as Prototheca moriformis) DNA: CGAAGGGGTCTGCATCGATTCGCGCGGTCTGGAGGCCAGCGTGACTGCTCGCGAAAATGCTCTGCCGTGTCGGGCTCTGGCTGGGGCGGCCAGAGATCTCACCGTGCCACACGCAACTGCCGCACTCTGTGCCCGCCACCTGGCGCGCACATGCGACCTCTTCCCCGTCATACCCTCTCCTCATGTGATCTTTCCACACGAGTGACGCAGGTGCGCGGAGTGGAGGGAATCAGGACGTTTTCAAGGTACCTGCTCGAGCCGTACCAACAGCTGCCGCCCGGCAAGGAAGAGATCGAGGCAGAGATTGCCCGGCTGGAGGCCCGGATAACGGAGCTCAAGAGCAAGCTGTCCGAGTGAGACCGCCCAGGTGCACGTGTCGACTCGCTATGACATGTACTCGACACAACATGAGGAATTCATCGAATTTGTAGGAAGCGGGCATTGGTACGGGAGTGGGAAAGCGAAAAAACCTCCCTCCGGCAGTGCCATCTGCCGGAGTCGAACGTTGATAGGGTTCTCGTGACAGGGTGTGACCTCTCAGCCTTGCATCAATTAAACGCTATAGACATTATCAGTAACCGTGAATCCCGCATTGGATGCCACCCGCGCGACCATTGGGGACCTGCATTACAGATCTAGGTGAGATGACAGCGAGGCAACTTCGGCCCGCGGCCCAGCTTGCGGCGCACCAATATTGGTCACGGGAAGCCACACACCGACCATAAATGAATACTTGTAAGCTATGTCAACCGATCAATGGCGTCGAAAGTGTGCCACGAGGATCCATCTGGCGGGGCGGCGTGGCGCACAAGCGCAGTCGCAATTTCTCGGACCCATCTGACCTAGGCCCAGCGCCGCGGGAGAAATCCCCGGCGGGTCCTCCACGCAGTAACCCTAATGAGTATCGAGCGCCGACCATTTACACCATCGCCCCCGAAATCCTTCCGACATTATTATTATCTTTTAGATCTTGGAACAGACTCTGCCAACC | 6.21 |
| Flap Flagellar-associated protein promoter/5′UTR: putative nitrogen-regulated promoter/5′UTR, SEQ ID NO: 57 (nucleic acid, listed as Prototheca moriformis) DNA: CAACGACAACCAGCAGGCAACTCGGTCAGCGACCCAACACGCGAGTCAAATTGTTGCGTGTTCTTGCCTTGTCTATTTACTGTGATAGCAAGACTGTCGGTCAGTCAATACCGCGGTGCGCACGTCGGGGTGCCAAGCCTAGCAGAGCACGGGACGGCTGGTGCTGTGCGCCAGCTCAGCTCGCTTCGCGACCAATTGTAGGACCGGCAAAGTCACCAAAACATGCCAGCGGTGCGATTCAATTGGTCATGAGCTCTACAAAATTGTTTTGTGCGTCGCGCAGGTATCCAACGGCGCGGCAGAGAAAGTTTGACAGCTCTCGATTTCATCTCGGAAAAATGGGGAGAATTTATGACACACAAGTGCGCAGGCGGCCCAGGCGGCCAGCATATTCTGGCGTGACCTGGGCCGCCCACAAAATGCTTGGATGCACTCTAAAATAATTATATTTGCCATGAACAAGGGAAGAGTTACCGCACCCAGCCCTAGACTTGGGCGCCCGAGCAAGGTTACGTCAAGCCACCTTCGCCCATCGCCCAACTCCGTATTCCCCGACAGCCGCACGTGGCCCTCGCCGGAATGAACCCTGAATCGGCATCACGCCACGCGTTCGCCAATCGTTCCGCTCTCTGGCTTCATCGGCCTGCGCCTTCACGTCGTGGTCACGACAGTGCATTCATACTTCCATTTGCACCTCGGCACACACTTTTACGCATCGCCTACCCTTGCTGCGGCAGTCTAGGGTCACTTTGCAGCCATGGGACAGTGCTACACCACCGTCGGTGCGCAAAGCTATTTCAAGTGAACCGTGGGCGGAAAAAAGGAATGTACACTGTCTCAACCGACTCCTACAATTGTTTACCATGCAGATCAGAGCTCGACGGCCATCATCGAGCAGGTGTGGGGCCTTGGTGGCGCGGCGCGGGGCCCCAGGGCGTCGCAGGCATTGATGGCACTCTGAGACTTTCGCACGCGCATGAGGGACCCCATCAAGAGAAGAGTGTGTCTTTATGTCCCCATTCATGATGATGTATCTTGTGATTGTCGCAGTTTGGCAAGTTTAACCGGATCGCCGCTCCAGGTGTGGCGTGGCGGATTTTTCTAGGGGTGCTTGAGCAGTCG | 4.92 |
| SulfRed Sulfite reductase promoter/5′UTR: putative nitrogen-regulated promoter/5′UTR, SEQ ID NO: 58 (nucleic acid, listed as Prototheca moriformis) DNA: GGCCCAGGGCCCTGCGGATGGCCCACACCAGATCTAGCCTCTCTTATGCCATGCCCGCCTCGCTGCCCGTCGTATCCCCCCGCCGATCCGCGCGTAGGGGACCGCGGCCTGACCCACGCCACGAAAGAGCTTTGCTCCTCAATTTCTCGCCAACAGAACCGTATCAAACGCTCAACGCCTATCCCGAACAATCCGTATTCACACCAAATCGAGTATACCGGACTGGTTTGCCTAGTCTTGAAGGAAATGATCCCGTCCATGCTCGGAAGGGGGAGCGGGCGGAGGATCCTACTCATCTCTGAAATGGGATTGGTCCGAAGATGGGTTGGGCAAGCACGTGCCAAACCCCAGCGAGTTGCTGACGAGCAGGCTCATCCAATCCCCCGGCGAATCCTCCCTCACGCCCCGCATGCATACAAGTCCCTCCCACACGCCCCCTCCCATCCATTTTCGCCTGGTCCGAACGCGAGCGGCGTCGAGGCGGACCACTTGCTCCGCAGCGCCGTCTGGGTCTCCACCCCACAGCGGCTTTGCTGCCAGAGGCACCCCCCTTGCCCCACCTCCTCTTGCAGCC | 10.91 |
| SugT Sugar transporter promoter/5′UTR: putative nitrogen-regulated promoter/5′UTR, SEQ ID NO: 59 (nucleic acid, listed as Prototheca moriformis) DNA: CCAGGCAGGCGGTAGGGTTGCCGATTGCTTGAGCGAATTGGAAGATATAATTTTTTGTGGTGTCCCTGGACGCTGTTTGTGGCGCTCCTTTTTGGAGAAGATTGCGTGGGGGAGCTTTCCATGTACCACGCTTCCTTCTGAAAGGATTCTGGCCGAGTCCTGATGAGCCCAAAGAAAACACCTGCCTTTCAGTGCTGGCACTCTGAAAACGTCAACAGATGATTATACATGTCACAAAAGGCAGCCGATTAGGAACGGGAGCTCTGGCCGTTCGTTTGGCTGCCTGGGCTGATTGAAGTGATCCACCCTGTTCGAATGAAGGCGGTCGAGTCGAATTATCGACCGGAGCTGTCGGGAAGGCGTCCGGGGCAGAGTGAGGTGCTGCGGCCTGGTTGTCGTTCAAAAAGACCCCGGTAGCCCAACAATCACGAACGAAAGGAATATAATTGCTTGCATACTATACATTCAGTTTCTATGTGGCGGGTAGACAAGTCTCATGGGCTTCTAAAGGCTGTCCCTTGAAGGCTACTTATAAAAACTTGCTGCGCCATGGCACGGATCGCGCTTGCGCAGGCTGCAACCCTGCGCGCAAGGTCAAATACACAGCAAAAGATACTAACAGAATTTCTAAAAACATTTAAATATTTGTTTCGACCAGCCAATTGTGGTCGTAGGCACGCAAAAGACTTTGTTTTGCGCCCACCGAGCATCCACGCTGGCAGTCAAGCCAGTCCGATGTGCATTGCGTGGCAGCATCGAGGAGCATCAAAAACCTCGTGCACGCTTTTCTGTCAATCATCATCAACCACTCCACCATGTATACCCGATGCATCGCGGTGCGCAGCGCGCCACGCGTCCCAGACCCGCCCAAAAACCCAGCAGCGGCGAAAGCAAATCTTCACTTGCCCGAAACCCCGAGCAGCGGCATTCACACGTGGGCGAAAACCCCACTTGCCCTAACAGGCGTATGTCTGCTGTCACGATGCCTGACAACGGTATTATAGATATACACTGATTAATGTTTGAGTGTGTGCGAGTCGCGAATCAGGAATGAATTGCTAGTAGGCACTCCGACCGGGCGGGGGCCGAGGGACCA | 17.35 |
| Amt03-Ammonium transporter 03 promoter/5′UTR: putative nitrogen-regulated promoter/5′UTR, SEQ ID NO: 60 (nucleic acid, listed as Prototheca moriformis) DNA: GGCCGACAGGACGCGCGTCAAAGGTGCTGGGCGTGTATGCCCTGGTCGGCAGGTCGTTGCTGTTGCTGCGCTCGTGGTTCCGCAACCCTGATTTTGGCGTCTTATTCTGGCGTGGCAAGCGCTGACGCCCGCGAGCCGGGCCGGCGGCGATGCGGTGTCTCACGGCTGCCGAGCTCCAAGGGAGGCAAGAGCGCCCGGATCAGCTGAAGGGCTTTACACGCAAGGTACAGCCGCTCCTGCAAGGCTGCGTGGTGGACTTGAACCTGTAGGTCCTCTGCTGAAGTTCCTCCACTACCTCACCAGGCCCAGCAGACCAAAGCACAGGCTTTTCAGGTCCGTGTCATCCACTCTAAAACACTCGACTACGACCTACTGATGGCCCTAGATTCTTCATCAACAATGCCTGAGACACTTGCTCAGAATTGAAACTCCCTGAAGGGACCACCAGAGGCCCTGAGTTGTTCCTTCCCCCCGTGGCGAGCTGCCAGCCAGGCTGTACCTGTGATCGAGGCTGGCGGGAAAATAGGCTTCGTGTGCTCAGGTCATGGGAGGTGCAGGACAGCTCATGAAACGCCAACAATCGCACAATTCATGTCAAGCTAATCAGCTATTTCCTCTTCACGAGCTGTAATTGTCCCAAAATTCTGGTCTACCGGGGGTGATCCTTCGTGTACGGGCCCTTCCCTCAACCCTAGGTATGCGCGCATGCGGTCGCCGCGCAACTCGCGCGAGGGCCGAGGGTTTGGGACGGGCCGTCCCGAAATGCAGTTGCACCCGGATGCGCGGCGCCTTTCTTGCGATAATTTATGCAATGGACTGCTCTGCAAATTTCTGGGTCTGTCGCCAACCCTAGGATCAGCGGCGTAGGATTTCGTAATCATTCGTCCTGATGGGGAGCTACCGACTACCCTAATATCAGCCCGGCTGCCTGACGCCAGCGTCCACTTTTGCGTACACATTCCATTCGTGCCCAAGACATTTCATTGTGGTGCGAAGCGTCCCCAGTTACGCTCACCTGTTTCCCGACCTCCTTACTGTTCTGTCGACAGAGCGGGCCCACAGGCCGGTCGCAGCC | 10.1 |

system: Prototheca moriformis (UTEX 1435); test: Steady state thioesterase mRNA level by real-time RT-PCR (promoter testing, normalized to cd189); settings: low nitrogen medium

| Molecule | steady state C. camphora thioesterase mRNA level relative to control (C. reinhardtii beta tubulin promoter) |
| --- | --- |
| Aat01-Amino acid transporter 01 promoter/5′UTR: putative nitrogen-regulated promoter/5′UTR, SEQ ID NO: 62 (nucleic acid, listed as Prototheca moriformis) DNA: CGAAGGGGTCTGCATCGATTCGCGCGGTCTGGAGGCCAGCGTGACTGCTCGCGAAAATGCTCTGCCGTGTCGGGCTCTGGCTGGGGCGGCCAGAGATCTCACCGTGCCACACGCAACTGCCGCACTCTGTGCCCGCCACCTGGCGCGCACATGCGACCTCTTCCCCGTCATACCCTCTCCTCATGTGATCTTTCCACACGAGTGACGCAGGTGCGCGGAGTGGAGGGAATCAGGACGTTTTCAAGGTACCTGCTCGAGCCGTACCAACAGCTGCCGCCCGGCAAGGAAGAGATCGAGGCAGAGATTGCCCGGCTGGAGGCCCGGATAACGGAGCTCAAGAGCAAGCTGTCCGAGTGAGACCGCCCAGGTGCACGTGTCGACTCGCTATGACATGTACTCGACACAACATGAGGAATTCATCGAATTTGTAGGAAGCGGGCATTGGTACGGGAGTGGGAAAGCGAAAAAACCTCCCTCCGGCAGTGCCATCTGCCGGAGTCGAACGTTGATAGGGTTCTCGTGACAGGGTGTGACCTCTCAGCCTTGCATCAATTAAACGCTATAGACATTATCAGTAACCGTGAATCCCGCATTGGATGCCACCCGCGCGACCATTGGGGACCTGCATTACAGATCTAGGTGAGATGACAGCGAGGCAACTTCGGCCCGCGGCCCAGCTTGCGGCGCACCAATATTGGTCACGGGAAGCCACACACCGACCATAAATGAATACTTGTAAGCTATGTCAACCGATCAATGGCGTCGAAAGTGTGCCACGAGGATCCATCTGGCGGGGCGGCGTGGCGCACAAGCGCAGTCGCAATTTCTCGGACCCATCTGACCTAGGCCCAGCGCCGCGGGAGAAATCCCCGGCGGGTCCTCCACGCAGTAACCCTAATGAGTATCGAGCGCCGACCATTTACACCATCGCCCCCGAAATCCTTCCGACATTATTATTATCTTTTAGATCTTGGAACAGACTCTGCCAACC | up to four |
